In paper doi:10.1101/2020.02.11.943977:
Like-named read-outs stand apart in the source and are kept apart here.

Key:
Experiment in all cases: EMSA
[1] = biological target: T1, Replication protein A (RPA heterotrimer) (human, UniProt P27694;P15927;P35244 1-616;1-270;1-121)
[2] = biological target: T1, Replication protein A (RPA heterotrimer); remark: listed apart in the source
[3] = biological target: T1, Replication protein A (RPA heterotrimer); remark: listed apart in the source
[4] = biological target: T1, Replication protein A (RPA heterotrimer); remark: listed apart in the source
[5] = biological target: T1, Replication protein A (RPA heterotrimer); remark: listed apart in the source

T1 sequence (P27694 whole entry, chain 1 of 3): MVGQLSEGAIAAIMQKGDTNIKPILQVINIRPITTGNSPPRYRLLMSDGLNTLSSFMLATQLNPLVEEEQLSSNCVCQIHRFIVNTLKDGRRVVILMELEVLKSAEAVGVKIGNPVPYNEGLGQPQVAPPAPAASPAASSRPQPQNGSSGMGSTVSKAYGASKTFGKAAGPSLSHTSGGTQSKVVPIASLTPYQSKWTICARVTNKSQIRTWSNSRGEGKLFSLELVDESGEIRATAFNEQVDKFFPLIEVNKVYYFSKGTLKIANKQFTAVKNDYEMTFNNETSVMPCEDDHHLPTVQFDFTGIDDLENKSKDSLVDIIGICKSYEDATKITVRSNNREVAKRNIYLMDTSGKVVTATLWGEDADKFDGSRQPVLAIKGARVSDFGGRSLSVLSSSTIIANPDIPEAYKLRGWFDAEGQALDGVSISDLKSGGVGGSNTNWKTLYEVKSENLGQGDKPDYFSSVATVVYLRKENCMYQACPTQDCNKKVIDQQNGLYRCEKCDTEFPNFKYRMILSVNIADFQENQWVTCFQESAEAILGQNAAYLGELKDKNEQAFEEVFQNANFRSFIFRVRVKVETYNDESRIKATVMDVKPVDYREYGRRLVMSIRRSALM
T1 sequence (P15927 whole entry, chain 2 of 3): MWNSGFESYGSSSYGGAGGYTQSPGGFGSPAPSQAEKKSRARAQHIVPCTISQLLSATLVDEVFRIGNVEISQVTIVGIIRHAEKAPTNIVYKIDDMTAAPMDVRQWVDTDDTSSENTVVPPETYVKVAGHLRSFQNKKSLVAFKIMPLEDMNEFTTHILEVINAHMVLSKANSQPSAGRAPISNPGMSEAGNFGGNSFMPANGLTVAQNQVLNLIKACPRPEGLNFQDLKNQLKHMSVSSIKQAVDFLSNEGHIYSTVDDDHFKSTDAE
T1 sequence (P35244 whole entry, chain 3 of 3): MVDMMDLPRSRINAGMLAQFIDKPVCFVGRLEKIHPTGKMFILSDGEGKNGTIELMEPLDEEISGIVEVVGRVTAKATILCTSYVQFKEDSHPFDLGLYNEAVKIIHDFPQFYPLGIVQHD

Binder AAUGCUUAAUCAGUGAGGCACCUAUCUCAGCGAUCUGUCUAUUUCGUU (ssRNA) [RNA no. 3R] has a Kd [1] of 0.1 ± 0.0232 nM.

In the case of GAAGCAUUUAUCAGGGUUAUUGUCUCAUGAGCGGAU (ssRNA) [RNA no. 6R (36 nt)], the “apparent K (half saturation)” value [2] is reported as 65 nM.

GAAGCATTTATCAGGGTTATTGTCTCATGAGCGGATACATATTTGAAT (ssDNA) [ssDNA no. 211] was tested, and the Kd [3] was 0.0031 ± 0.0006 nM.

B1: dsDNA nos. 211/212 (dsDNA)
DNA 1: GAAGCATTTATCAGGGTTATTGTCTCATGAGCGGATACATATTTGAAT
DNA 2: ATTCAAATATGTATCCGCTCATGAGACAATAACCCTGATAAATGCTTC
Work on B1 yielded a Kd [3] of 35.5 ± 7 nM.

GAAGCAUUUAUCAGGGUUAUUGUC (ssRNA) [RNA no. 5R (24 nt)] was tested, and the “apparent K (half saturation)” value [2] was 120 nM.

Binder CGUUAAGGGAUUUUGGUCAUGAGAUUAUCAAAAAGGAUCUUCACCUAG (ssRNA) [RNA no. 7R] has a Kd [4] of 0.248 ± 0.0327 nM.

For UUUUAAAUCAAUCUAAAGUAUAUAUGAGUAAACUUGGUCUGACAGUUA (ssRNA) [RNA no. 8R], the Kd [4] was 0.0629 ± 0.0082 nM.

Work on GAAGCAUUUAUCAGGGUUAUUGUCUCAUGAGCGGAUACAUAUUUGAAU (ssRNA) [RNA no. 501] yielded a Kd [5] of 0.072 ± 0.0102 nM and a Kd [3] of 0.101 ± 0.017 nM.

B2: RNA-DNA hybrid nos. 501/212 (DNA:RNA)
RNA: GAAGCAUUUAUCAGGGUUAUUGUCUCAUGAGCGGAUACAUAUUUGAAU
DNA: ATTCAAATATGTATCCGCTCATGAGACAATAACCCTGATAAATGCTTC
In the case of B2, the Kd [3] is reported as 85.9 ± 4.5 nM.
